What was measured:
TGFβ1 (active, mature) = TGFβ1 (active, mature) (human, UniProt P01137 279-390); experiment: MST; 37 °C, 2 h; MST: 30 nM Cy5-a'-Apt final with 45 pM (4.5 pM in Fig S3 legend) to 1.5 uM protein, 37 °C, 2 h; specificity MST 5 nM aptamer, 0.25 uM protein; buffer, salt and; conditions: protein: commercial; chain copies: 2; label: 5'-Cy5; annealed 95 °C 5 min, 4 °C 30 min
IFN-γ = IFN-γ (human, UniProt P01579 24-166); experiment: MST; aptamer:protein 1:50; MST: 30 nM Cy5-a'-Apt final with 45 pM (4.5 pM in Fig S3 legend) to 1.5 uM protein, 37 °C, 2 h; specificity MST 5 nM aptamer, 0.25 uM protein; buffer, salt and; conditions: protein: commercial; chain copies: 2; label: 5'-Cy5; annealed 95 °C 5 min, 4 °C 30 min
Chain of IFN-γ (P01579 24-166): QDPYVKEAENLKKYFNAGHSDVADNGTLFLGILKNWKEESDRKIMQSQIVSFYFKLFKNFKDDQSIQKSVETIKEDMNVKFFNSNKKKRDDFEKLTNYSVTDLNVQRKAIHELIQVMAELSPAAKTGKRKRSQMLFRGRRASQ

Chain of TGFβ1 (active, mature) (P01137 279-390): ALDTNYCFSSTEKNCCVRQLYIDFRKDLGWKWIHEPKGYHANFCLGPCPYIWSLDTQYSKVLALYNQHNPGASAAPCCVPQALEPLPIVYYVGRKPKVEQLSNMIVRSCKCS

B1: Cy5-a'-Apt (ssDNA)
DNA: TCGCTCGGCTTCACGAGATTCGTGTCGTTGTGTCCTGTACCCGCCTTGACCAGTCACTCTAGAGCATCCGGACTGTAGATGGAGTGTGGTGTGAAG
modifications: phosphorothioates at A and C bases (positions marked * in Table S3)
With B1 as the binder, how does the Kd (TGFβ1 (active, mature)) read?
The Kd was 28 nM.

Does B1 bind (IFN-γ)?
Result: no binding
